Data reported in paper PMC2994917 (The Journal of neuroscience : the official journal of the …, 2010).

Key:
NSF S460E mutant = NSF S460E mutant (Chinese hamster, UniProt P18708 1-744, S460E); test: far-Western, overlay or dot blot
NSF T461E mutant = NSF T461E mutant (Chinese hamster, UniProt P18708 1-744, T461E); test: far-Western, overlay or dot blot
NSF T461E mutant, sequence (P18708 whole entry T461E): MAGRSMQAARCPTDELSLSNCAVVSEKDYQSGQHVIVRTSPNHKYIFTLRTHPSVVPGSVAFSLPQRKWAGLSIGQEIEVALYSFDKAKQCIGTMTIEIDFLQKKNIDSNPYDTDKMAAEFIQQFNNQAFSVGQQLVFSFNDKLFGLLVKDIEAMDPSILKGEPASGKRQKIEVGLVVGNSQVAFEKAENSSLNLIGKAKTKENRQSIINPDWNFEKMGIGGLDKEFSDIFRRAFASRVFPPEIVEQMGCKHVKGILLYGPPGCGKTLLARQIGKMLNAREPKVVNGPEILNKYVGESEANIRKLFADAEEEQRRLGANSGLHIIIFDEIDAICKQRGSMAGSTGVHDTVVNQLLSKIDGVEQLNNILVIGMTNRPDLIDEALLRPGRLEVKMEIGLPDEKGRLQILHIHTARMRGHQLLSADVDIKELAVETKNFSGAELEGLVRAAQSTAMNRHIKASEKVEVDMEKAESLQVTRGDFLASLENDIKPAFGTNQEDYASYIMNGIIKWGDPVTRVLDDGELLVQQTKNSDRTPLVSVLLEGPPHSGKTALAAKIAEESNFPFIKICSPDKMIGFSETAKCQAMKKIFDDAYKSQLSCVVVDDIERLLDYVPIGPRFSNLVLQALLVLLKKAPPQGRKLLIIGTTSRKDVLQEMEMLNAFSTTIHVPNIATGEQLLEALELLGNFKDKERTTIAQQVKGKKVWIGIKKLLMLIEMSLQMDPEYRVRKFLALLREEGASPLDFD

NSF S460E mutant, sequence (P18708 whole entry S460E): as the sequence (P18708 whole entry T461E) above, with S460E, E461T counted along it

B1: human recombinant PKCε (Invitrogen) (enzyme, UniProt Q02156 1-737, looked up)
chain: MVVFNGLLKIKICEAVSLKPTAWSLRHAVGPRPQTFLLDPYIALNVDDSRIGQTATKQKTNSPAWHDEFVTDVCNGRKIELAVFHDAPIGYDDFVANCTIQFEELLQNGSRHFEDWIDLEPEGRVYVIIDLSGSSGEAPKDNEERVFRERMRPRKRQGAVRRRVHQVNGHKFMATYLRQPTYCSHCRDFIWGVIGKQGYQCQVCTCVVHKRCHELIITKCAGLKKQETPDQVGSQRFSVNMPHKFGIHNYKVPTFCDHCGSLLWGLLRQGLQCKVCKMNVHRRCETNVAPNCGVDARGIAKVLADLGVTPDKITNSGQRRKKLIAGAESPQPASGSSPSEEDRSKSAPTSPCDQEIKELENNIRKALSFDNRGEEHRAASSPDGQLMSPGENGEVRQGQAKRLGLDEFNFIKVLGKGSFGKVMLAELKGKDEVYAVKVLKKDVILQDDDVDCTMTEKRILALARKHPYLTQLYCCFQTKDRLFFVMEYVNGGDLMFQIQRSRKFDEPRSRFYAAEVTSALMFLHQHGVIYRDLKLDNILLDAEGHCKLADFGMCKEGILNGVTTTTFCGTPDYIAPEILQELEYGPSVDWWALGVLMYEMMAGQPPFEADNEDDLFESILHDDVLYPVWLSKEAVSILKAFMTKNPHKRLGCVASQNGEDAIKQHPFFKEIDWVLLEQKKIKPPFKPRIKTKRDVNNFDQDFTREEPVLTLVDEAIVKQINQEEFKGFSYFGEDLMP
- binding result (NSF S460E mutant): binds
- binding result (NSF T461E mutant): binds
